4 molecules from US20250326851A1 (Bayer, published 2025) can be followed below.

One may read the EC50 as the midpoint of the concentration-response curve. Usually Kd stands for a measure of binding affinity in units of concentration.

“And” between values parts separate entries of the source, which are not always exact repeats. Identical values can stand only once.

Assay [1] deals with T1, mouse CCR8 on HEK293 cells (mouse, UniProt P56484 1-353).
T1 sequence (looked up): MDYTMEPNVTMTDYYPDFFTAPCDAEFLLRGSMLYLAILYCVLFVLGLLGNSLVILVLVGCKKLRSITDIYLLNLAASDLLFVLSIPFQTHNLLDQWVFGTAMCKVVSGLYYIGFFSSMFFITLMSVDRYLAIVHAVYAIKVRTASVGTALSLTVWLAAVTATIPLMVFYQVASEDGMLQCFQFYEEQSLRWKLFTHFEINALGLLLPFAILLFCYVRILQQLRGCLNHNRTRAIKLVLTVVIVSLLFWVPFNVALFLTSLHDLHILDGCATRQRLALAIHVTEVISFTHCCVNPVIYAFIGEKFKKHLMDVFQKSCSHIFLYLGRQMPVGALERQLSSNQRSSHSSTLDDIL
The assay is described as follows: cell-based or functional assay.

The target in assay [2] is T1, mouse CCR8 on HEK293 cells. The experiment in a line: cell-based or functional assay. This is another data set of the same source.
Assay [3] addresses T1, mouse CCR8 on HEK293 cells. The assay is described as follows: flow cytometry, mouse CCR8-expressing HEK293 cells; reference TPP-15285. The protocol:
(§1) The binding properties of murine surrogate antibodies were assessed using flow cytometry on HEK293 cells ectopically expressing murine CCR8.
(In general: A flow cytometer gives signals particle by particle.)

Assay [4] addresses T1, mouse CCR8 on HEK293 cells. The assay is described as follows: flow cytometry on murine CCR8-transfected HEK293 cells. As for the experimental part:
as §1

The target in assay [5] is T2, Mouse FcγRIIIB/CD16b (mouse).
T2 construct: The printed name is that of a human receptor; kept as printed; also called mFcγR variant
The assay is described as follows: SPR; approximation, saturation not reached. The protocol:
(§2) The binding of murine surrogate antibodies to mouse Fc receptor variants (mFcγR and mFcRn) was analyzed by SPR.

The target in assay [6] is T3, Mouse FcγRIIA/CD32a (R167) (mouse).
T3 construct: The printed name is that of a human receptor allotype; kept as printed; also called mFcγR variant
The assay is described as follows: SPR; approximation, saturation not reached. The protocol: as §2
A general note: In SPR one partner is held on a chip, and binding of the other changes the refractive index at the surface.

The target in assay [7] is T4, Mouse FcγRIV/CD16-2 (mouse, UniProt A0A0B4J1G0 21-203).
T4 construct: also called mFcγR variant
T4 sequence: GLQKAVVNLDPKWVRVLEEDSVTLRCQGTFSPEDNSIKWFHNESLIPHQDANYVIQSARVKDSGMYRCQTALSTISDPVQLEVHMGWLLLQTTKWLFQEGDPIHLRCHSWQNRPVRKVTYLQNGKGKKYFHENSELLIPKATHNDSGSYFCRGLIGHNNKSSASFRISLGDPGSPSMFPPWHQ
The assay is described as follows: SPR. The protocol:
as §2

Assay [8] addresses T5, Mouse FcRn (mouse, UniProt Q61559 22-297; P01887 21-119).
T5 construct: also called mFcRn; murine FcRn
T5 sequence (looked up) 1: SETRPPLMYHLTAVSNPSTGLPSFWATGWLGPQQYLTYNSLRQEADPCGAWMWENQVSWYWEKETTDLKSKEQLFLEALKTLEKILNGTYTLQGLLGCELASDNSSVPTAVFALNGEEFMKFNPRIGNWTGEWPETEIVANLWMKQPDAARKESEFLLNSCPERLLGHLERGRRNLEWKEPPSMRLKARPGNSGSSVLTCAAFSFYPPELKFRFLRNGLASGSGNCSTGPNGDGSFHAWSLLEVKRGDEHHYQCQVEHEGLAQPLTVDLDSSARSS
T5 sequence (looked up) 2: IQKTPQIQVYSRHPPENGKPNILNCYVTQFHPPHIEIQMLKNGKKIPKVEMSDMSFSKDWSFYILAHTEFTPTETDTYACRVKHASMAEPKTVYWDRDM
The assay is described as follows: SPR. As for the experimental part: as §2

Assay [9] has as its target T6, human CCR8 (human, UniProt P51685 1-355). The assay is described as follows: cell-based or functional assay.
Assay [10] concerns the target T6, human CCR8. The experiment in a line: flow cytometry using HEK293 cells, 0.0046 to 10 µg/mL (selectivity study).
Assay [11] addresses T6, human CCR8. The experiment in a line: cell-based or functional assay. The source holds these as a separate data set.

T6 sequence (P51685 whole entry): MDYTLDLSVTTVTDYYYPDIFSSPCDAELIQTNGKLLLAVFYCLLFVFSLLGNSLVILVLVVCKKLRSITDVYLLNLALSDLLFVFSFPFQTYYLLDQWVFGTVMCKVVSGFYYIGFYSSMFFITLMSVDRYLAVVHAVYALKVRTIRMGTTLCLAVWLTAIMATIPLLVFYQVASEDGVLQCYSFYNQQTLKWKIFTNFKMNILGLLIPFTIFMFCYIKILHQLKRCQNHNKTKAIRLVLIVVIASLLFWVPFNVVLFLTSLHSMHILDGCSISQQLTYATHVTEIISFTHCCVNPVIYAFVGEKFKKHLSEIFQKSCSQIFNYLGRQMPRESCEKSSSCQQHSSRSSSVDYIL

B1: TPP-29338 (short half-life) (antibody, mouse IgG2a)
heavy: EVQLLESGGGLVQPGGSLRLSCAASGFTFSDYGVHWVRQAPGKGLEWVSGVSWNGSRTHYADSVKGRFTISRDNSKNTLYLQMNSLRAEDTAVYYCVTRGAWGQGTLVTVSSAKTTAPSVYPLAPVCGDTTGSSVTLGCLVKGYFPEPVTLTWNSGSLSSGVHTFPAVLQSDLYTLSSSVTVTSSTWPSQSITCNVAHPASSTKVDKKIEPRGPTIKPCPPCKCPAPNLLGGPSVFIFPPKIKDVLMISLSPIVTCVVVDVSEDDPDVQISWFVNNVEVHTAQTQTHREDYNSTLRVVSALPIQANDWMSGKEFKCKVNNKDLPAPIERTISKPKGSVRAPQVYVLPPPEEEMTKKQVTLTCMVTDFMPEDIYVEWTNNGKTELNYKNTEPVLDSDGSYFMYSKLRVEKKNWVERNSYSCSVVHEGLAQHHTTKSFSRTPGK
light: QSVLTQPPSASGTPGQRVTISCSGSSFNIGSHFVYWYQQLPGTAPKLLIYKNNQRPSGVPDRFSGSKSGTSASLAISGLRSEDEADYYCAAWDDSLNGPVFGGGTKLTVLGQPKSSPSVTLFPPSSEELETNKATLVCTITDFYPGVVTVDWKVDGTPVTQGMETTQPSKQSNNKYMASSYLTLTARAWERHSSYSCQVTHEGHTVEKSLSRADCS
For the molecule B1, in assay [1], the “ADCC EC50 (ng/mL) at 20 hours; mouse CCR8-expressing HEK293 cells, mouse NK cells” value worked out at 1.33 ng/mL and the “ADCC EC50 (pM) at 20 hours; mouse CCR8-expressing HEK293 cells, mouse NK cells” value came to 9.28 pM. Further, in assay [2], the “cumulative ADCP EC50 (ng/mL), 4 hours; mouse CCR8-expressing HEK293 cells, mouse M2 macrophages” value is 74.3 ng/mL; the “cumulative ADCP EC50 (ng/mL), 12 hours; mouse CCR8-expressing HEK293 cells, mouse M2 macrophages” value amounted to 28.3 ng/mL; the “cumulative ADCP EC50 (pM), 4 hours; mouse CCR8-expressing HEK293 cells, mouse M2 macrophages” value was 518 pM; the “cumulative ADCP EC50 (pM), 12 hours; mouse CCR8-expressing HEK293 cells, mouse M2 macrophages” value amounted to 197 pM. Moreover, the “fold higher affinity compared to TPP-15825” value in assay [3] worked out at 10 fold. Also, the EC50 in assay [4] is 0.495 nM and 0.071 µg/mL. Also, the Kd in assay [5] is about 19000 nM. In assay [6], this molecule showed a Kd of about 12000 nM. This molecule gave a Kd in [7] of 1400 nM. Besides, the binding result in assay [8] is “no binding (tested: 15.6 to 2,000 nM (FcRn assay))”.

B2: TPP-15285 (normal half-life) (antibody, V domains shown)
VH: EVQLLESGGGLVQPGGSLRLSCAASGFTFSDYGVHWVRQAPGKGLEWVSGVSWNGSRTHYADSVKGRFTISRDNSKNTLYLQMNSLRAEDTAVYYCVTRGAWGQGTLVTVSS
VL: not shown
notes: Anti-mouse CCR8 antibody, human VH/VL chimerized to mIgG2a (lambda)
In the case of B2, in assay [1], the “ADCC EC50 (ng/mL) at 20 hours; mouse CCR8-expressing HEK293 cells, mouse NK cells” value is 32.6 ng/mL and the “ADCC EC50 (pM) at 20 hours; mouse CCR8-expressing HEK293 cells, mouse NK cells” value is 227 pM. Besides, in [2], the “cumulative ADCP EC50 (ng/mL), 4 hours; mouse CCR8-expressing HEK293 cells, mouse M2 macrophages” value worked out at 54.5 ng/mL; the “cumulative ADCP EC50 (ng/mL), 12 hours; mouse CCR8-expressing HEK293 cells, mouse M2 macrophages” value is 22.7 ng/mL; the “cumulative ADCP EC50 (pM), 4 hours; mouse CCR8-expressing HEK293 cells, mouse M2 macrophages” value was 380 pM; the “cumulative ADCP EC50 (pM), 12 hours; mouse CCR8-expressing HEK293 cells, mouse M2 macrophages” value stood at 158 pM. Besides, in [4], the EC50 is 12.5 nM and 1.8 µg/mL.

B3: TPP-23411 (afucosylated) (antibody, human IgG1, lambda, V domains shown)
VH: EVQLLESGGGLVQPGGSLRLSCAASGFTFSSYGMHWVRQAPGKGLEWVSAINWNGGSTGYADSVKGRFTISRDNSKNTLYLQMNSLRAEDTAVYYCARGHHSGYDGRFFDYWGQGTLVTVSS
VL: QSVLTQPPSVSGAPGQRVTISCTGSSSNIGAGYNVHWYQQLPGTAPKLLIYTNNRRPSGVPDRFSGSKSGTSASLAISGLRSEDEADYYCAAWDASLSGWVFGGGTKLTVLG
modifications: afucosylated Fc glycan
notes: Fully human IgG1 lambda; In the ADA bridging assay it was biotinylated or SULFO-tagged; also called 21360-hIgG1wtlambda; anti-human CCR8 antibody hIgG1 isotype (afucosylated)
For B3, in assay [9], the “ADCC EC50; HEK-hCCR8 target cells, NK92V effector cells” value came out at 0.0128 nM; the “ADCC EC50; Tregs, donor 1100 (85.0% CCR8 expression), NK92V effector cells” value was found to be 0.0281 nM; the “ADCC EC50; Tregs, donor 1163 (31.4% CCR8 expression), NK92V effector cells” value was 0.0559 nM. The midpoint of the response in assay [10], the EC50, lay at 0.129 µg/mL. For the same molecule, in assay [11], the “ADCP EC50; Tregs, donor 1100 (63% CCR8 expression), human M2c macrophages” value was 0.143 nM and the “ADCP EC50; Tregs, donor 1163 (40% CCR8 expression), human M2c macrophages” value amounted to 0.44 nM.

B4: TPP-23411 (wild-type) (antibody, human IgG1, lambda, V domains shown)
VH: EVQLLESGGGLVQPGGSLRLSCAASGFTFSSYGMHWVRQAPGKGLEWVSAINWNGGSTGYADSVKGRFTISRDNSKNTLYLQMNSLRAEDTAVYYCARGHHSGYDGRFFDYWGQGTLVTVSS
VL: QSVLTQPPSVSGAPGQRVTISCTGSSSNIGAGYNVHWYQQLPGTAPKLLIYTNNRRPSGVPDRFSGSKSGTSASLAISGLRSEDEADYYCAAWDASLSGWVFGGGTKLTVLG
modifications: conventional (fucosylated) glycosylation
Consider B4, for which the “ADCC EC50; HEK-hCCR8 target cells, NK92V effector cells” value in assay [9] was 0.0702 nM. Moreover, in assay [11], the “ADCP EC50; Tregs, donor 1100 (63% CCR8 expression), human M2c macrophages” value turned out to be 0.155 nM and the “ADCP EC50; Tregs, donor 1163 (40% CCR8 expression), human M2c macrophages” value was determined as 0.148 nM.
